Test results from paper PMC6386680 (Proceedings of the National Academy of Sciences of the …, 2019).

Experiments:
[1] = molecular target: Gal-3–8S–Gal-1 (covalently connected heterodimer, Gal-3 CRD, 33-aa Gal-8 linker, Gal-1 CRD) (human); experiment: SAXS
[2] = molecular target: Gal-3–8S–Gal-1 (covalently connected heterodimer, Gal-3 CRD, 33-aa Gal-8 linker, Gal-1 CRD) (human); experiment: SEC
Gal-3 CRD (trGal-3) = Gal-3 CRD (trGal-3) (Homo sapiens, UniProt P17931); experiment: hydrogen-deuterium exchange mass spectrometry; format: binding; settings: absence vs presence of lactose; canonical site
Sequence of Gal-3 CRD (trGal-3) (P17931 108-250 limits assumed): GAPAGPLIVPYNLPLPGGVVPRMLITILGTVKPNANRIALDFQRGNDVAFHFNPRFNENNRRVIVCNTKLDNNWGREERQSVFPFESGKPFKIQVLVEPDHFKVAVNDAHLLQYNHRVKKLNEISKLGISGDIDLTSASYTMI

stoichiometry N [1] | stoichiometry N [2] | Compound | hydrogen-deuterium exchange mass spectrometry (Gal-3 CRD (trGal-3))
2 | 2 | Gal-3–8S–Gal-1 (covalently connected heterodimer, Gal-3 CRD, 33-aa Gal-8 linker, Gal-1 CRD) | 
 |  | OC[C@H]1O[C@@H](O[C@H]2[C@H](O)[C@@H](O)C(O)O[C@@H]2CO)[C@H](O)[C@@H](O)[C@H]1O (stereo partly drawn) [Lac] | significantly decreased deuterium uptake was found in the region of the canonical binding site
